This note sets out measurements from doi:10.1101/2025.06.15.659787.

In the assay the target is [2Fe-2S]-bound Mtb-SufU (sulfide transfer protein SufU, Rv1465, of Mycobacterium tuberculosis H37Rv) (Mycobacterium tuberculosis H37Rv) (UniProt O53156). As to the kind of experiment: SEC-MALS. (In gel filtration, larger molecules generally elute earlier.)

The stoichiometry N is a count of units in the complex or per binding partner. Turning to “[2Fe-2S]-bound Mtb-SufU (sulfide transfer protein SufU, Rv1465, of Mycobacterium tuberculosis H37Rv) (from UniProt O53156 1-162) (natural protein)”, the stoichiometry N turned out to be 4.
